The text below walks through data of patent US20190315838A1 (MIT, published 2019).

The target of experiment [1] is T1, Zika virus envelope protein, strain MR766-NIID (Uganda 1947) (Zika virus strain MR766-NIID (Uganda …, UniProt Q32ZE1 291-790)).
Experiment [2] concerns the target T2, Zika virus envelope protein, strain ILM (Brazil Paraiba 2015) (Zika virus strain ILM (Brazil Paraiba …)).
T2 construct: also called Zika strain ILM; Zika virus EP

The target of experiment [3] is T1, Zika virus envelope protein, strain …. This is another data set of the same source.
The target of experiment [4] is T2, Zika virus envelope protein, strain ILM …. In words: cell-based or functional assay.
Experiment [5] addresses Zika virus envelope protein, strain H/PF/2013 (French Polynesia 2013) (Zika virus strain H/PF/2013 (French …, UniProt A0A024B7W1 291-794)). Nature of the experiment: cell-based or functional assay.

Changes are numbered by the printed parent chain. Where only a bound is given, the exact number is not on record here.

B1: mAb 7 (antibody, V domains shown)
VH: EVQLLESGGGLVQPGGSLRLSCAASGFSFSTYSMHWVRQAPGKGLEWVSAISGEGDSAYYADSVKGRFEISRDNSKNTLYLQMNKVRAEDTAVYYCVGGYSNFYYYYTMDAWGQGTMVTVSS
VL: DIVMTQSPASLSLSPGERATLSCRATQSIVTFLAWYQQKPGQAPRLLIYDASTNASGIPARFSGSRSGTDFTLTITRLEPEDFAVYYCQQRYNWPPYSFGQGTKLEIK
notes: also called VH.2 / VL.4
As a reminder, the EC50 (read off the curve) is the concentration that produces a half-maximal response. Lower therefore signals a more potent agent. Usually Kd stands for the equilibrium constant for the complex coming apart. For B1, the “EC50 (read off the curve)” value in experiment [1] is roughly 0.03 µg/mL. In addition, the Kd in experiment [2] was found to be 5.21 µg/mL; in experiment [3], 0.0265 µg/mL.

B2: mAb 8 (antibody, V domains shown)
VH: B1 VH with E69T
VL: B1 VL with V30S, N54R
notes: also called VH.1 / VL.2
As for B2, the “EC50 (read off the curve)” value in experiment [1] was roughly 0.03 µg/mL. This molecule also displayed a PRNT50 in experiment [4] of 5.12 µg/mL. In experiment [5], the “ADE, viral titers at peak enhancement in THP1.2S cells” value was no less than 3 fold and the PRNT50 was found to be 5.09 µg/mL. Also, the dissociation constant (Kd) in experiment [2] came out at 19.3 µg/mL.

B3: mAb 3 (antibody, V domains shown)
VH: EVQLVESGGGLVQPGGSLRLSCSASGFTFSTYSMHWVRQAPGKGLEYVSAITGEGDSAFYADSVKGRFTISRDNSKNTLYFEMNSLRPEDTAVYYCVGGYSNFYYYYTMDVWGQGTTVTVSS
VL: EIVLTQSPATLSLSPGERATLSCRASQSISTFLAWYQHKPGQAPRLLIYDASTRATGVPARFSGSRSGTDFTLTISTLEPEDFAVYYCQQRYNWPPYTFGQGTKVEIK
notes: also called VH.4 / VL.3
In the case of B3, the “EC50 (read off the curve)” value in experiment [1] was roughly 0.8 µg/mL. In experiment [3], this molecule displayed a Kd of 0.0248 µg/mL.

B4: mAb 6 (antibody, V domains shown)
VH: B3 VH with T28S, V111A, T117S
VL: B3 VL with T10S, S26T, T56S, T77S, T98S
notes: also called VH.3 / VL.1
As to B4, the “EC50 (read off the curve)” value in experiment [1] was roughly 0.03 µg/mL. The PRNT50 in experiment [4] was found to be 0.0597 µg/mL. Further, the Kd in experiment [2] came out at 3.85 µg/mL.

B5: fusion loop targeting pan-flavivirus antibody 4G2 (antibody, V domains shown)
VH: EVQLQQSGPELVKPGTSVKISCKTSGYTFTEYTIHWVKQSHGKSLAWIGGIDPNSGGTNYSPNFKGKATLTVDKSSSTAYMDLRSLSSEDSAVYFCARIYHYDGYFDVWGAGTAVTVSS
VL: DIKMTQSPSSMYASLGERVTITCKASQDINSYLTWFQQKPGKSPKTLIYRANRLIDGVPSRFSGSGSGQDYSLTISSLDYEDMGIYYCLQYDEFPPTFGGGTKLEIKR
For the molecule B5, binding in experiment [2] was characterised by a dissociation constant (Kd) of 6.41 µg/mL.
